Test [1] addresses vault-Z nanoparticle (assembly of major vault protein carrying a C-terminal Z peptide) (human | staphylococcal (protein A-derived)). As to the kind of experiment: co-sedimentation; 8 nM vault-Z (624 nM MVP-Z) or authentic vault incubated 1 h with 40 to 320 nM Tz in 12 mM sodium phosphate pH 7.2, 0.14 M NaCl, 2.7 mM KCl; pelleted at 100,000 x g, 2 h, 4 °C; pellets quantified by SDS-PAGE densitometry and LC/MS; apparent KD from a quadratic binding equation.

For test [2], the target named is Trastuzumab. Briefly: SPR; same sensorgrams of Z peptide on immobilised Tz, fitted with the affinity model (Req against Z peptide concentration). For orientation: Surface plasmon resonance follows binding to a sensor surface in real time, without labels.
Test [3] addresses Trastuzumab. As to the kind of experiment: SPR; Biacore X100; Tz amine-coupled to a CM3 chip at 1220 RU; authentic vault, vault-Z or peptide Z injected 3 min at 30 uL/min, 25 °C, in 10 mM HEPES pH 7.4, 0.15 M NaCl, 3 mM EDTA, 0.05% Surfactant P20; Langmuir 1:1 kinetic fit.

pKd: −log10 of the molar value.

For Trastuzumab (antibody), in test [1], the Tz bound per vault-Z at 160 nM Tz (Tz per vault-Z) was 14 and the stoichiometry N (Tz per vault-Z) is > 10.
As to Z peptide in isolation, the pKd (usually the negative decadic logarithm of the Kd, by convention in mol/L) in test [2] is 7.25. In addition, in test [3], the pKd was 7.42, the koff (commonly the rate constant with which the complex falls apart) turned out to be 0.0171 s⁻¹ and the kon (commonly the second-order rate constant of association) is 446000 M⁻¹ s⁻¹.
In test [3], “vault-Z nanoparticle (assembly of major vault protein carrying a C-terminal Z peptide) (complex)” had a pKd of 8.60, a koff of 0.000259 s⁻¹ and a kon of 105000 M⁻¹ s⁻¹.

For the origin of these results see publication PMC11203631.
